The Kd is the concentration at which binding is half-saturated. Read a low Kd as a tighter complex. The stoichiometry N is a count of units in the complex or per binding partner.

B1: yeast single chain H2A-H2B (other)
chain: RKETYSSYIYKVLKQTHPDTGISQKSMSILNSFVNDIFERIATEASKLAAYNKKSTISAREIQTAVRLILPGELAKHAVSEGTRAVTKYSSSTQAQSRSAKAGLTFPVGRVHRLLRRGNYAQRIGSGAPVYLTAVLEYLAAEILELAGNAARDNKKTRIIPRHLQLAIRNDDELNKLLGNVTIAQGGVLPNI
modifications: Limits and order (H2B then H2A) are taken by homology from scZB in 2JSS/6AE8. The paper's H2B numbers are mature (+1 on precursor) and its H2A numbers are precursor. H2A.1 paralogue assumed.
B2: middle region of Chz1 (Chz1 64-124) (domain or fragment, S. cerevisiae (budding yeast), UniProt P40019 64-124, looked up)
chain: TVEDSESDMDDAKLDALMGNEGEEEEDDLAEIDTSNIITSGRRTRGKVIDYKKTAEELDKK
notes: Chz1, budding yeast, residues 64-124; also called Chz1-M; source: E. coli BL21-CodonPLUS(DE3)-RIPL, purified (Ni-NTA, HiTrap Q)
B3: middle and C-terminal region of Chz1 (Chz1 64-153) (domain or fragment, S. cerevisiae (budding yeast), UniProt P40019 64-153, looked up)
chain: TVEDSESDMDDAKLDALMGNEGEEEEDDLAEIDTSNIITSGRRTRGKVIDYKKTAEELDKKEPSTGSKDDVGYGEKEEDDEDEEDDDFKE
notes: Chz1, budding yeast, residues 64-153; only residues 142-153 are seen in the crystal structure; also called Chz1-MC; Chz1-MC WT; source: E. coli BL21-CodonPLUS(DE3)-RIPL, purified (Ni-NTA, HiTrap Q)
B4: single chain H2A-H2B with H2A P50A (other)
chain: RKETYSSYIYKVLKQTHPDTGISQKSMSILNSFVNDIFERIATEASKLAAYNKKSTISAREIQTAVRLILPGELAKHAVSEGTRAVTKYSSSTQAQSRSAKAGLTFPVGRVHRLLRRGNYAQRIGSGAAVYLTAVLEYLAAEILELAGNAARDNKKTRIIPRHLQLAIRNDDELNKLLGNVTIAQGGVLPNI
B5: single chain H2A-H2B with H2A N91G (other)
chain: MRKETYSSYIYKVLKQTHPDTGISQKSMSILNSFVNDIFERIATEASKLAAYNKKSTISAREIQTAVRLILPGELAKHAVSEGTRAVTKYSSSTQAQSRSAKAGLTFPVGRVHRLLRRGNYAQRIGSGAPVYLTAVLEYLAAEILELAGNAARDNKKTRIIPRHLQLAIRGDDELNKLLGNVTIAQGGVLPNI
B6: single chain H2A-H2B with H2A NKLGNV→DSIRA (other)
chain: RKETYSSYIYKVLKQTHPDTGISQKSMSILNSFVNDIFERIATEASKLAAYNKKSTISAREIQTAVRLILPGELAKHAVSEGTRAVTKYSSSTQAQSRSAKAGLTFPVGRVHRLLRRGNYAQRIGSGAPVYLTAVLEYLAAEILELAGNAARDNKKTRIIPRHLQLAIRNDDELDSLIRATIAQGGVLPNI

What all share (details): both partners purified
In experiment [1] the target is B2. Put plainly: ITC; 0.2 M NaCl (Table 1); Swc2-Z or Chz1-M injected into single-chain histone dimers; otherwise as the ITC methods (25°C, 20 mM MES pH 6.0). (In general: Isothermal titration calorimetry measures the heat released or taken up as one component is titrated into another.)
Experiment [2] concerns the target T1, Swc2-Z, the 1–136 segment of the Swc2 subunit of the SWR1 complex (yeast).
T1 construct: SWR complex protein 2 (Swc2), subunit of the yeast SWR1 complex, residues 1-136
The experiment is described as above.

For experiment [3], the target named is B2. Kind of experiment: ITC; MicroCal VP-ITC, 25°C, 20 mM MES (pH 6.0), 0.5 M NaCl; chaperone (50 or 150 μM) injected into histones (5 μM scZB or 15 μM scAB and mutants) in the cell; one-site fit.
Experiment [4] deals with B3. Described as above.
The target of experiment [5] is B1. Put plainly: ITC; 0.2 M NaCl (Table 1); Swc2-Z or Chz1-M injected into single-chain histone dimers; otherwise as the ITC methods (25°C, 20 mM MES pH 6.0).
Experiment [6] concerns the target B1. Put plainly: ITC; MicroCal VP-ITC, 25°C, 20 mM MES (pH 6.0), 0.5 M NaCl; chaperone (50 or 150 μM) injected into histones (5 μM scZB or 15 μM scAB and mutants) in the cell; one-site fit.
Experiment [7] addresses B4. The experiment is described as above.
Experiment [8] has as its target B5. The experiment is described as above.
The target in experiment [9] is B6. The experiment is described as above.

For the molecule B1, the Kd is 300 ± 2 nM in [1], 200 ± 70 nM in experiment [2], 7870 ± 350 nM in experiment [3] and 5020 ± 420 nM in [4].

As to B2, the “stoichiometry N” value in [5] stood at 1 sites; in experiment [6], 0.7 sites.

Take B3: the “stoichiometry N” value in experiment [6] was found to be 0.9 sites; in experiment [7], 1 sites; in experiment [8] it was 1 sites; in experiment [9] it was 0.9 sites.

B4 gave a Kd in [4] of 530 ± 40 nM.

On to B5, for which the Kd in [4] is 420 ± 20 nM.

In experiment [4], B6 displayed a Kd of 5080 ± 180 nM.

(Values after publication PMC6544321, “Structural insights into histone chaperone Chz1-mediated H2A.Z recognition and histone replacement” (PLoS Biology, 2019).)
